This note sets out measurements from the supplement of paper PMC9170038.

Data set [1] has as its system MS2 coat protein. Nature of the data set: apparent KD of MS2 coat protein, switch ON state; designed switch direction (-1 OFF switch, 1 ON switch): -1; higher = weaker reporter binding. Conditions: FMN input: 0 or 200 uM; Eterna round: R93 (includes R88 designs). An outline of the steps: (§1)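 Apparent KD was obtained for each design as the median of normalised binding-curve fits over its clusters. RNA switches transcribed on-chip from Illumina sequencing clusters were titrated with SNAP-549-labelled MS2 coat protein (twofold steps, 0.7 or 1.5 nM to 3 µM) in 100 mM Tris-HCl pH 7.5, 80 mM KCl, 4 mM MgCl2, without or with constant ligand.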

Data set [2] relates to MS2 coat protein. Nature of the data set: apparent KD of MS2 coat protein, switch OFF state (with FMN for OFF switches, without FMN for ON switches); designed switch direction (-1 OFF switch, 1 ON switch): -1; higher = weaker reporter binding. Conditions: FMN input: 0 or 200 uM; Eterna round: R93 (includes R88 designs). In short, it runs like this:
as §1

With “AAGAAACAUGAGGAUCACCCAUGUCAGGAUAUGCAAGACUGACGAAAGUCAGUCAAAAGCAGAAGGGACUAGAA [7-pair stack]”, the results for the “apparent KD of MS2 coat protein” value in the data set on MS2 coat protein [1] and in the data set with MS2 coat protein [2] were 28 nM and 51.5 nM, respectively.
In the case of “AAAAAGGCAGGAUAUACGAACAUGUCAAAAGACGUGAAGGGACAUGAGGAUCACCCAUGUAGAAGGGUCAAGAA [JL Stem Breaker 18]”, the “apparent KD of MS2 coat protein” value was 218 nM in the data set with MS2 coat protein [1] and 52.1 nM in the data set on MS2 coat protein [2].
The like results for “AAGACUAGAGGAUAUACAUGAGGAUCACCCAUGUAACUGUCAGGUGACUGACGGAGAUGUAGAAGGCUAGUCAA [Wider Swing]” were, in that order, 17.2 nM and 41.2 nM.
“UAAAAACAUGAGGAUCACCCAUGUGAGGAUAUCGAAAAAAAAAAAUUAAAAAAGGAAGCGAGAAGGUACGGGAU [close, no cigar]”: the “apparent KD of MS2 coat protein” value was 33.3 nM with MS2 coat protein [1] and 33.2 nM with MS2 coat protein [2].
As to “CUCAUGUAAGGAUAUCAGUAGUAAAAAAAUAAAAUUACUACUGAGAAGGUACAUGAGGAUCACCCAUGUCCGGG [EX4 374: Super Stable 74]”, the figures for the “apparent KD of MS2 coat protein” value with MS2 coat protein [1] and in the data set on MS2 coat protein [2] were 21.7 nM and 18.3 nM, respectively.
For “AUAAAACAUGAGGAUCACCCAUGUCAGGAUAUACGAUAUUAAAUUUAAUAUAUUUAUAGUAGAAGGGACAAAUA [High Five]”, the “apparent KD of MS2 coat protein” value with MS2 coat protein [1] stood at 31.6 nM; with MS2 coat protein [2], 37.1 nM.
In the case of “AAAAAGAUAGGAUAUACGUACAUGUCGAAAGACGUGAAGGGACAUGAGGAUCACCCAUGUAGAAGGAUUAAAAA [Mat - Exclusion 2 - JL mod - D90]”, the figures for the “apparent KD of MS2 coat protein” value with MS2 coat protein [1] and with MS2 coat protein [2] were 43.8 nM and 14.5 nM, respectively.
On to “AACACACAUGAGGAUCACCCAUGUAAGGAUAUGCGAGCAAGAAGAAAGAACAGAAAAAGCAGAAGGUACACACA [Amethyst 75]”, for which the “apparent KD of MS2 coat protein” value with MS2 coat protein [1] turned out to be 29.6 nM; with MS2 coat protein [2] it was 29.5 nM.
For “AAUAACUGAGGAUAUACUAAAGAAAUGAAAAGAAAUAAAGAACAUGAGGAUCACCCAUGUAGAAGGCAGAAUAA [Nuya]”, the “apparent KD of MS2 coat protein” value in the data set with MS2 coat protein [1] is 32 nM; in the data set with MS2 coat protein [2], 30.6 nM.
Regarding “AAGAACUAAGGAUAUACAAGGAAGAAAGAAAAGAAAAGAAAACAUGAGGAUCACCCAUGUAGAAGGUAGUAGAA [EteRNA is fun!]”, the “apparent KD of MS2 coat protein” value in the data set on MS2 coat protein [1] turned out to be 28.8 nM; in the data set on MS2 coat protein [2], 24.7 nM.
Consider “ACAAGAUCAGGAUAUACAUGAGGAUCACCCAUGUAUAAAAAAAAAGGGCCUUCUACAUGUAGAAGGGAUCUUGU [EX3 290: Random 26]”, for which the figures for the “apparent KD of MS2 coat protein” value with MS2 coat protein [1] and in the data set on MS2 coat protein [2] were 14.3 nM and 19.9 nM, respectively.
Regarding “CAAAGGUGAGGAUAUACAAAAAAAUGACGAAAGUCAUCCACACAUGAGGAUCACCCAUGUAGAAGGCACCACAA [E2 64% 6]”, the “apparent KD of MS2 coat protein” value came out at 30 nM in the data set on MS2 coat protein [1] and 29.2 nM in the data set on MS2 coat protein [2].
The like results for “AAAAAACAUGAGGAUCACCCAUGUGAGGAUAUGGAAAGAAAAAAAAAGAAAGAAAAAACCAGAAGGCACAAAAA [Amethyst 30]” were, in that order, 42.8 nM and 23.8 nM.
Regarding “UCCGAACAUGAGGAUCACCCAUGUCAGGAUAUACACCCAGCAUGUAAACCAUGCUCAAGUAGAAGGGACGGGUG [Teisaes]”, the “apparent KD of MS2 coat protein” value was determined as 34.9 nM in the data set on MS2 coat protein [1] and 25.7 nM in the data set with MS2 coat protein [2].
In the case of “AUAAGUGCAGGAUAUACGAAAAGCUAGCGAAAGCUAGCGGGACAUGAGGAUCACCCAUGUAGAAGGGCACAAUA [Tetraloop hairpin BlockHead... 61% 6]”, the “apparent KD of MS2 coat protein” value in the data set on MS2 coat protein [1] was 25 nM; with MS2 coat protein [2] it was 50.3 nM.
The like results for “AAAAGUGGAGGAUAUACAUGAGGAUCACCCAUGUGUAAAAAUAAAAACACAAAAGAAAGUAGAAGGCCACAAAG [Mat - Exclusion 3 - Mayanna mod - D115]” were, in that order, 19.4 nM and 55.2 nM.
On to “GAGGAACAUGAGGAUCACCCAUGUGAGGAUAUCGGAGGAGGAGGAGGAGGAGGAGGAGCGAGAAGGUACAAGAG [salish99-Ex1-03]”, for which the “apparent KD of MS2 coat protein” value in the data set on MS2 coat protein [1] stood at 22.7 nM; in the data set with MS2 coat protein [2], 29.8 nM.
In the case of “ACUAAUGAAGGAUAUACAAACAACAAACACUCAACACACACACAUGAGGAUCACCCAUGUAGAAGGUCAAACAU [JR_Exc002_Sub1204]”, the entries for the “apparent KD of MS2 coat protein” value in the data set with MS2 coat protein [1] and with MS2 coat protein [2] were 19.2 nM and 18.2 nM, respectively.
For the sequence “AGAAAACAUGAGGAUCACCCAUGUGAGGAUAUGCGAAAAGAAAGAAAAUAAAAUAAAAGCAGAAGGUACAAAUA”, the “apparent KD of MS2 coat protein” value with MS2 coat protein [1] came out at 29.9 nM; with MS2 coat protein [2], 31.3 nM.
As to “AAAAAACAUGAGGAUCACCCAUGUGAGGAUAUGCUAAAAAAAUCCGCAUAAAAAAAUAGCAGAAGGCACAUAAA [PK1]”, the figures for the “apparent KD of MS2 coat protein” value with MS2 coat protein [1] and in the data set with MS2 coat protein [2] were 25 nM and 44.1 nM, respectively.
For “AACAUGUUAGGAUAUGAAAGAAAAGAAAAGAAAGAAAAGAAUCAGAAGGAACAUGAGGAUCACCCAUGUAAGAA [EteRNA is fun!]”, the entries for the “apparent KD of MS2 coat protein” value with MS2 coat protein [1] and with MS2 coat protein [2] were 25.6 nM and 19.8 nM, respectively.
On to “AAAAAACAUGAGGAUCACCCAUGUCAGGAUAUGCAGAAAAAGAAAAAAAGAAAAGAAAGUAGAAGGGACAAAAA [May 7]”, for which the “apparent KD of MS2 coat protein” value with MS2 coat protein [1] worked out at 31.2 nM; in the data set on MS2 coat protein [2] it was 31.8 nM.
On to “AGAUGACAAGGAUAUACUAGGGAUGCUAGUCGAGAAGAAGAACAUGAGGAUCACCCAUGUAGAAGGUGUAAGAA [JR_Exc002_Sub1703]”, for which the “apparent KD of MS2 coat protein” value with MS2 coat protein [1] worked out at 35.4 nM; with MS2 coat protein [2], 33.8 nM.
In the case of “AAAAAGUGAGGAUAUGCGCUGUCAAGUAGACACGAGCAGUCGUAGAAGGCACAUGAGGAUCACCCAUGUUUAAA [EX4 Malc#23]”, the results for the “apparent KD of MS2 coat protein” value in the data set on MS2 coat protein [1] and with MS2 coat protein [2] were 28.5 nM and 19.4 nM, respectively.
The like results for “GGAAAACAUGAGGAUCACCCAUGUCAGGAUAUACAAAGAAAGAAAGAAAAGAAAGAAAGUAGAAGGGACUAAAG [Amethyst 16]” were, in that order, 20.4 nM and 37.9 nM.
The like results for “AGCUGGAGAGGAUAUACGUAGGAAAAAAAAGUCUGAUCCCUACAUGAGGAUCACCCAUGUAGAAGGCUCUGGCA [Ex2 Design 161: Sub-opt 25]” were, in that order, 63.5 nM and 63.6 nM.
For “AAGAACUUAGGAUAUACAAAAUAAAAGAAAAGAAAGAAAGAACAUGAGGAUCACCCAUGUAGAAGGGAGAAGAA [Nimaatre Amenemhat III]”, the “apparent KD of MS2 coat protein” value with MS2 coat protein [1] turned out to be 55.9 nM; in the data set with MS2 coat protein [2], 29.8 nM.
Turning to “GGAAAACAUGAGGAUCACCCAUGUGAGGAUAUCGAUGUCCAAUAAAAAGUGCGGGACUCGAGAAGGCACUUGGA [salish99-ex1-41]”, the “apparent KD of MS2 coat protein” value amounted to 36.2 nM with MS2 coat protein [1] and 29.2 nM in the data set on MS2 coat protein [2].
The like results for “AUGUAGGUAGGAUAUACAUGGAUAUACAUUCAUGUGGACCUACAUGAGGAUCACCCAUGUAGAAGGACCUAAAA [Mat - Same state - Mayanna Mod - D128]” were, in that order, 45 nM and 39.4 nM.
Turning to “AAAAAGGGAGGAUAUGCAUACACACAAAAAAAAAAACCGGGACAUGAGGAUCACCCAUGUAGAAGGCCCAAAAA [Dora Explored 6 - Jieux - Exclusion 2]”, the figures for the “apparent KD of MS2 coat protein” value in the data set with MS2 coat protein [1] and in the data set with MS2 coat protein [2] were 33.5 nM and 25 nM, respectively.
The like results for “AAAAAUUGAGGAUAUACGUACAUGUCAAAAGACGUGAAGGGACAUGAGGAUCACCCAUGUAGAAGGCGAAAAAA [JL Neck Breaker 12]” were, in that order, 38.8 nM and 13.6 nM.
On to “AAAAAACAUGAGGAUCACCCAUGUGAGGAUAUCCUAAACAAAAAAAACAAAAACAAAUGGAGAAGGCACAAAAA [Amethyst 35]”, for which the “apparent KD of MS2 coat protein” value in the data set with MS2 coat protein [1] came to 105 nM; with MS2 coat protein [2], 126 nM.
The like results for “AAAGGGUCAGGAUAUCGAUUAAUAAUAAAAUAAAUAAAGAUCGAGAAGGGACAUGAGGAUCACCCAUGUAUAAA [May 77]” were, in that order, 45.9 nM and 54.6 nM.
With “CUCAAGUUAGGAUAUUGAAGAAAAGAAGAGAAAGAAAAGAACAAGAAGGAACAUGAGGAUCACCCAUGUAAGAA [EteRNA is fun!]”, the results for the “apparent KD of MS2 coat protein” value with MS2 coat protein [1] and in the data set on MS2 coat protein [2] were 22.9 nM and 21.8 nM, respectively.
In the case of “GGUUGGCGAGGAUAUACAUGAGGAUCACCCAUGUGAGAGAAAAAAGUGAGAUAGAAAAGUAGAAGGCGCUGACG [salish99-ex3-34]”, the results for the “apparent KD of MS2 coat protein” value in the data set with MS2 coat protein [1] and with MS2 coat protein [2] were 58.8 nM and 286 nM, respectively.
The like results for “AAGAAUGGAGGAUAUACAAAAUAAAAGAAAAGAAAGAAAGAACAUGAGGAUCACCCAUGUAGAAGGCCGAAGAA [Mersekhemre Ined]” were, in that order, 14.6 nM and 37.3 nM.
For the sequence “AAAUGCUGAGGAUAUACAUGAGGAUCACCCAUGUAAAAUAAAUAAUGGGUGUAAACGUGUAGAAGGCAGCAUAA [Exclusion 3.14d (FMN+ favored )]”, the entries for the “apparent KD of MS2 coat protein” value with MS2 coat protein [1] and in the data set on MS2 coat protein [2] were 33.8 nM and 16.8 nM, respectively.
For the sequence “AACAUGUCAGGAUAUAUAAGAAAAGAAAAGAAAGAAAAGAAAUAGAAGGGACAUGAGGAUCACCCAUGUAAGAA [EteRNA is fun!]”, the “apparent KD of MS2 coat protein” value was 45.2 nM with MS2 coat protein [1] and 29 nM in the data set with MS2 coat protein [2].
Turning to “AGGGAGUGAGGAUAUACGAAAAAAAAACAACGAAAAAAAGAGUAGAAGGCACAUGAGGAUCACCCAUGUAAGAA [milkweed 14]”, the “apparent KD of MS2 coat protein” value in the data set on MS2 coat protein [1] came to 44.5 nM; in the data set with MS2 coat protein [2] it was 25.3 nM.
“AGCUAGUCAGGAUAUACGAACAUGUCAAAAGACGUGAAGGGACAUGAGGAUCACCCAUGUAGAAGGGACUAGCG [salish99-ex2-14]”: the “apparent KD of MS2 coat protein” value came out at 36 nM in the data set on MS2 coat protein [1] and 103 nM in the data set on MS2 coat protein [2].
